One molecule from patent publication US20110262464A1, “Compositions, Kits, and Methods for the Diagnosis, Prognosis, and Monitoring of Cancer Using GOLPH3” (DANAFARBER CANCER INSTITUTE, INC., priority 2008, published 2011) can be followed below.

The test system of the assay is GOLPH3 localization at the Golgi in A549 cells. Briefly: Immunofluorescence of GOLPH3 localization. The class given is cell-based, human. To be noted: A549 treated with EGF at specific time points. The protocol: For immunofluorescence studies, cells were cultured on cover slips, followed by fixation for 15 min at RT in 4% paraformaldehyde in PBS, permeabilization for 10 min RT in 0.1% Triton X-100/PBS and blocking 1 hr RT in 10% goat or donkey serum/PBS. Slides were incubated 1 hr RT with the following antibodies: mouse anti-HA (1:100, Cell Signaling); rabbit anti-TGN46 (1:500; Abcam), goat anti-VPS35 (1:200; Abcam) and mouse anti-GOLPH3 (1:300). Slides were stained for 1 hour RT with the corresponding Alexa Flour secondary antibodies (Invitrogen). Cover slips were stained with DAPI (Sigma) and mounted with mounting medium. Microscopic images were obtained with a Nikon inverted Ti microscope equipped with Yokogawa spinning disk confocal/TIRF system and a Hamamatsu Orca ER firewire digital CCD camera using constant exposure times for each channel in individual experiments. Images were compiled and false-colored with Adobe Photoshop using identical settings for each color. Magnification is 100× unless otherwise indicated.
In order to determine whether or not ARF4 might regulate GOLPH3 localization at the Golgi apparatus, ARF4 siRNA were transfected into A549 cells.

B1: EGF: epidermal growth factor (Invitrogen), 100 ng/ml for stimulation assays (protein, UniProt P01133 23-1207, looked up)
Pro-epidermal growth factor: PQHWSCPEGTLAGNGNSTCVGPAPFLIFSHGNSIFRIDTEGTNYEQLVVDAGVSVIMDFHYNEKRIYWVDLERQLLQRVFLNGSRQERVCNIEKNVSGMAINWINEEVIWSNQQEGIITVTDMKGNNSHILLSALKYPANVAVDPVERFIFWSSEVAGSLYRADLDGVGVKALLETSEKITAVSLDVLDKRLFWIQYNREGSNSLICSCDYDGGSVHISKHPTQHNLFAMSLFGDRIFYSTWKMKTIWIANKHTGKDMVRINLHSSFVPLGELKVVHPLAQPKAEDDTWEPEQKLCKLRKGNCSSTVCGQDLQSHLCMCAEGYALSRDRKYCEDVNECAFWNHGCTLGCKNTPGSYYCTCPVGFVLLPDGKRCHQLVSCPRNVSECSHDCVLTSEGPLCFCPEGSVLERDGKTCSGCSSPDNGGCSQLCVPLSPVSWECDCFPGYDLQLDEKSCAASGPQPFLLFANSQDIRHMHFDGTDYGTLLSQQMGMVYALDHDPVENKIYFAHTALKWIERANMDGSQRERLIEEGVDVPEGLAVDWIGRRFYWTDRGKSLIGRSDLNGKRSKIITKENISQPRGIAVHPMAKRLFWTDTGINPRIESSSLQGLGRLVIASSDLIWPSGITIDFLTDKLYWCDAKQSVIEMANLDGSKRRRLTQNDVGHPFAVAVFEDYVWFSDWAMPSVMRVNKRTGKDRVRLQGSMLKPSSLVVVHPLAKPGADPCLYQNGGCEHICKKRLGTAWCSCREGFMKASDGKTCLALDGHQLLAGGEVDLKNQVTPLDILSKTRVSEDNITESQHMLVAEIMVSDQDDCAPVGCSMYARCISEGEDATCQCLKGFAGDGKLCSDIDECEMGVPVCPPASSKCINTEGGYVCRCSEGYQGDGIHCLDIDECQLGEHSCGENASCTNTEGGYTCMCAGRLSEPGLICPDSTPPPHLREDDHHYSVRNSDSECPLSHDGYCLHDGVCMYIEALDKYACNCVVGYIGERCQYRDLKWWELRHAGHGQQQKVIVVAVCVVVLVMLLLLSLWGAHYYRTQKLLSKNPKNPYEESSRDVRSRRPADTEDGMSSCPQPWFVVIKEHQDLKNGGQPVAGEDGQAADGSMQPTSWRQEPQLCGMGTEQGCWIPVSSDKGSCPQVMERSFHMPSYGTQTLEGGVEKPHSLLSANPLWQQRALDPPHQMELTQ
modifications: Pro-epidermal growth factor
notes: epidermal growth factor (Invitrogen), 100 ng/ml for stimulation assays
For the molecule B1, the “GOLPH3 localization at the Golgi” value is recorded as “redistribution of GOLPH3 from the Golgi”.
